In the supplement of paper PMC6755084:

B1: minF1; the commonest letter at each place (parent)
chain: GAGACCGCAACTGAAAAGTTGTTATCAGAAATGGATGGGTTGAATTTCTGCACGTAGAAGCAAAAGGC

Variants of: B1
Experiment: fraction ligated after 30 min (ligated reads / total reads); higher = more ligase activity
Settings: with F1*subA RNA substrate (template-directed ligation), 42 °C
Outline: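 Using barcoded primers for reverse transcription and a MiSeq for sequencing, gel-separated ligated and unligated RNAs of minimized ligase ribozyme variants were read, with core-base filtering at quality ≥30. Fraction ligated per variant was defined as ligated reads over total reads.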

Variant | fraction ligated
A27C T32C | 0.0159
A27C T32A | 0.0275
A27C T32G | 0.0136
C26A G28C | 0.0637
C26A G28A | 0.0578
C26A G28T | 0.117
C26G A43T | 0.00299
C26G A43C | 0.00457
C26G A43G | 0.00467
T25G T36A | 0.0107
T25G T36C | 0.00768
T25G T36G | 0.0257
A27G G42C | 0.0187
A27G G42A | 0.361
A27G G42T | 0.16
C26T A43C | 0.00569
C26T A43G | 0.0095
C26T A43T | 0.0127
G28C G37C | 0.0045
G28C G37A | 0.0114
C26T G33T | 0.206
C26T G33C | 0.325
C26T G33A | 0.481
A27G G28T | 0.824

Variant | fraction ligated
A27G G28A | 0.797
A27G G28C | 0.793
C26A T32G | 0.00324
C26A T32A | 0.00455
C26A T32C | 0.0036
G28A T36G | 0.0443
G28A T36C | 0.0146
G28A T36A | 0.0244
G28C A30C | 0.817
G28C A30G | 0.816
G28C A30T | 0.825
C26G G33T | 0.0124
C26G G33C | 0.00704
C26G G33A | 0.0636
C26A A31G | 0.102
C26A A31T | 0.0701
C26A A31C | 0.0417
G28A T32A | 0.0454
G28A T32G | 0.0134
G28A T32C | 0.0224
A27G A29G | 0.797
A27G A29C | 0.809
A27G A29T | 0.808
A27C A29T | 0.501

Variant | fraction ligated
A27C A29C | 0.623
A27C A29G | 0.61
C26G A31G | 0.0731
C26G A31C | 0.0238
C26G A31T | 0.0387
C26A G33A | 0.19
C26A G33T | 0.0279
C26A G33C | 0.0427
A27C G34C | 0.00877
A27C G34A | 0.15
A27C G34T | 0.0114
T25G G33A | 0.0162
T25G G33C | 0.00397
T25G G33T | 0.0188
A27T | 0.824
A27C | 0.694
A27G | 0.803
C26G T36C | 0.00195
C26G T36G | 0.00843
C26G T36A | 0.00192
C26T G28A | 0.362
C26T G28C | 0.61
C26T G28T | 0.55
G28A G34T | 0.00746

Variant | fraction ligated
G28A G34A | 0.0882
G28A G34C | 0.00587
A27G A43C | 0.132
A27G A43T | 0.169
A27G A43G | 0.105
C26T A29T | 0.43
C26T A29G | 0.417
C26T A29C | 0.39
C26T A27T | 0.816
C26T A27G | 0.544
C26T A27C | 0.79
C26A A29G | 0.0844
C26A A29T | 0.112
C26A A29C | 0.0944
G28C A44C | 0.596
G28C A44T | 0.719
G28C A44G | 0.674
C26G A29G | 0.0311
C26G A29C | 0.0431
C26G A29T | 0.0347
A27T A31T | 0.802
A27T A31C | 0.844
A27T A31G | 0.837
A27C A35T | 0.176

Variant | fraction ligated
A27C A35C | 0.481
A27C A35G | 0.112
A27G A30C | 0.803
A27G A30G | 0.824
A27G A30T | 0.78
G28A G37C | 0.00899
G28A G37A | 0.00676
G28A G37T | 0.0166
A27G G34C | 0.00194
A27G G34T | 0.00742
A27G G34A | 0.207
A27C G37C | 0.004
A27C G37T | 0.0224
A27C G37A | 0.0106
C26G G42A | 0.00168
C26G G42C | 0.00152
C26G G42T | 0.00229
A27G G33C | 0.35
A27G G33A | 0.814
A27G G33T | 0.807
G28A A29C | 0.83
G28A A29G | 0.835
G28A A29T | 0.822
A27T G28C | 0.765

Variant | fraction ligated
A27T G28T | 0.833
A27T G28A | 0.825
A27C G28A | 0.503
A27C G28C | 0.61
A27C G28T | 0.628
A27T G42C | 0.0569
A27T G42T | 0.444
A27T G42A | 0.698
A27T G37T | 0.0547
A27T G37A | 0.0217
A27T G37C | 0.00946
T25G G37C | 0.00475
T25G G37A | 0.00178
T25G G37T | 0.00311
A27G A35T | 0.0618
A27G A35G | 0.332
A27G A35C | 0.0489
C26T G42C | 0.00245
C26T G42T | 0.00392
C26T G42A | 0.0165
A27C G33A | 0.835
A27C G33C | 0.817
A27C G33T | 0.818
G28C G34C | 0.00831

Variant | fraction ligated
G28C G34A | 0.109
G28C G34T | 0.00677
G28A A35G | 0.246
G28A A35C | 0.0346
G28A A35T | 0.0165
A27C A44G | 0.38
A27C A44T | 0.441
A27C A44C | 0.244
G28C A29C | 0.795
G28C A29T | 0.831
G28C A29G | 0.812
G28A A31T | 0.821
G28A A31G | 0.799
G28A A31C | 0.802
C26T T36A | 0.0132
C26T T36G | 0.0188
C26T T36C | 0.00419
G28A A43G | 0.0763
G28A A43C | 0.0816
G28A A43T | 0.102
C26T G34T | 0.0063
C26T G34C | 0.00303
C26T G34A | 0.623
T25G G34T | 0.0038

Variant | fraction ligated
T25G G34C | 0.00366
T25G G34A | 0.00816
C26T T32G | 0.00682
C26T T32A | 0.00354
C26T T32C | 0.00511
A27C T36A | 0.0988
A27C T36C | 0.0483
A27C T36G | 0.0955
C26A A30T | 0.0695
C26A A30G | 0.216
C26A A30C | 0.0463
A27G T32G | 0.0179
A27G T32C | 0.0134
A27G T32A | 0.0468
C26G | 0.0466
C26T | 0.433
C26A | 0.121
C26T G37A | 0.00482
C26T G37C | 0.00325
C26T G37T | 0.00513
A27C G42C | 0.0124
A27C G42A | 0.171
A27C G42T | 0.0494
G28A G42T | 0.0941

Variant | fraction ligated
G28A G42A | 0.279
G28A G42C | 0.0107
C26G A27G | 0.0369
C26G A27T | 0.0725
C26G A27C | 0.0501
G28C A35C | 0.0372
G28C A35T | 0.0136
G28C A35G | 0.0701
G28C A43C | 0.0652
G28C A43T | 0.0901
G28C A43G | 0.0597
C26G G34T | 0.00574
C26G G34C | 0.0293
C26G G34A | 0.0747
C26G A35C | 0.00486
C26G A35T | 0.000597
C26G A35G | 0.00566
C26A G37T | 0.00569
C26A G37A | 0.00335
C26A G37C | 0.00572
T25G T32A | 0.00223
T25G T32C | 0.00349
T25G T32G | 0.00886
A27C A31G | 0.687

Variant | fraction ligated
A27C A31T | 0.455
A27C A31C | 0.421
C26A A35G | 0.00416
C26A A35T | 0.00429
C26A A35C | 0.00203
C26T A35T | 0.0022
C26T A35C | 0.00406
C26T A35G | 0.0104
C26A T36C | 0.00707
C26A T36G | 0.0133
C26A T36A | 0.0039
C26A A43T | 0.00633
C26A A43G | 0.00987
C26A A43C | 0.00276
C26G G37A | 0.00254
C26G G37T | 0.00384
C26G G37C | 0.00497
C26A G34C | 0.00194
C26A G34T | 0.00758
C26A G34A | 0.0394
G28A G33C | 0.719
G28A G33T | 0.593
G28A G33A | 0.791
T25G G28T | 0.0241

Variant | fraction ligated
T25G G28C | 0.0182
A27T G34A | 0.285
A27T G34C | 0.00507
A27T G34T | 0.00294
G28C | 0.82
G28A | 0.809
A27G A31G | 0.806
A27G A31T | 0.816
A27G A31C | 0.802
C26G G28A | 0.0283
C26G G28C | 0.0331
C26G G28T | 0.0589
A27C A43C | 0.0394
A27C A43T | 0.0472
A27C A43G | 0.0284
C26A A27C | 0.134
C26A A27G | 0.481
C26A A27T | 0.0953
C26T A30G | 0.5
C26T A30T | 0.339
C26T A30C | 0.333
C26G A44T | 0.0283
C26G A44C | 0.00656
C26G A44G | 0.0117

Variant | fraction ligated
A27T A44G | 0.825
A27T A44C | 0.766
A27T A44T | 0.827
C26A G42A | 0.00533
C26A G42T | 0.00182
C26A G42C | 0.00168
A27G T36C | 0.0221
A27G T36A | 0.0472
A27G T36G | 0.0614
T25G G42C | 0.004
T25G G42T | 0.000854
T25G G42A | 0.00421
A27T A30T | 0.834
A27T A30G | 0.851
A27T A30C | 0.822
A27T A29T | 0.832
A27T A29C | 0.808
A27T A29G | 0.829
C26G A30T | 0.0435
C26G A30C | 0.0436
C26G A30G | 0.0544
A27T A43G | 0.281
A27T A43C | 0.336
A27T A43T | 0.412

Variant | fraction ligated
G28A A30T | 0.814
G28A A30G | 0.816
G28A A30C | 0.802
C26A A44C | 0.0236
C26A A44G | 0.03
C26A A44T | 0.0723
G28C A29T A30T A31T | 0.752
A27G A44T | 0.774
A27G A44G | 0.746
A27G A44C | 0.69
A27T A35T | 0.102
A27T A35C | 0.406
A27T A35G | 0.384
G28A A44T | 0.773
G28A A44G | 0.753
G28A A44C | 0.667
C26G T32A | 0.00367
C26G T32C | 0.00208
C26G T32G | 0.00509
A27T T36G | 0.16
A27T T36A | 0.122
A27T T36C | 0.0659
C26T A31G | 0.52
C26T A31C | 0.312

Variant | fraction ligated
C26T A31T | 0.404
A27C A30G | 0.759
A27C A30C | 0.465
A27C A30T | 0.403
A27G G37C | 0.00672
A27G G37A | 0.00716
A27G G37T | 0.0232
G28C G33C | 0.641
G28C G33A | 0.772
G28C G33T | 0.639
A27T G33A | 0.829
A27T G33C | 0.822
A27T G33T | 0.737
G28C A31T | 0.814
G28C A31G | 0.798
G28C A31C | 0.664
C26T A44T | 0.246
C26T A44C | 0.091
C26T A44G | 0.142
A27T T32G | 0.0604
A27T T32A | 0.0711
A27T T32C | 0.0794
